Results on 49 molecules are retold here after patent US20170056486A1.

For this test, the target named is HLA-A*24 (human). In words: UV-exchange ELISA (anti-b2m); yield 50%-75%.

IYPEWPVVFF gave a peptide exchange yield of 50 to 75%. The result for RYLNKSFVL reads 50 to 75%; that for KYIFQLNEI, 50 to 75%; that for DYIPASGFALF, 50 to 75%. Molecule IYNETITDLL gave a peptide exchange yield of 50 to 75%. The molecule NYITGKGDVF came in with a peptide exchange yield of 50 to 75%.

In the case of EYFTPLLSGQF, the peptide exchange yield was 50 to 75%. VYPPYLNYL yielded a peptide exchange yield of 50 to 75%. In turn, IYLSDLTYI had a peptide exchange yield of 50 to 75%. For the molecule IYNFVESKL, the peptide exchange yield lay in the range of 50 to 75%.

With RYGLPAAWSTF, the peptide exchange yield was 50 to 75%. Molecule VYALKVRTI came in with a peptide exchange yield of 50 to 75%.

As for VYFKAGLDVF, the peptide exchange yield is 50 to 75%. The result for KYPDIVQQF reads 50 to 75%; that for EYLDRIGQLFF, 50 to 75%; that for VFSRDFGLLVF, 50 to 75%. Molecule SYPKIIEEF displayed a peptide exchange yield of 50 to 75%.

LYSPVPFTL showed a peptide exchange yield of 50 to 75%. Consider VYRVYVTTF, for which the peptide exchange yield fell in the range of 50 to 75%. With TYIPVGLGRLL the figure was 50 to 75%; with IYSFHTLSF, 50 to 75%. The result for PYLQDVPRI reads 50 to 75%; that for KYLQVVGMF, 50 to 75%. The result for RYGDGGSSF reads 50 to 75%. IFGIFPNQF registered a peptide exchange yield of 50 to 75%.

Turning to LYLAFPLAF, the peptide exchange yield is 50 to 75%. The result for VYIESRIGTSTSF reads 50 to 75%; that for QYFTGNPLF, 50 to 75%; that for KYLNSVQYI, 50 to 75%.

For IYNETVRDLL, the peptide exchange yield lay in the range of 50 to 75%. The result for IYEETRGVL reads 50 to 75%; that for RYLEAALRL, 50 to 75%. With NYSSAVQKF the figure was 50 to 75%. For AYIPTPIYF, the peptide exchange yield was in the range of 50 to 75%. With NYYERIHAL, the peptide exchange yield is 50 to 75%. Turning to EYQARIPEF, the peptide exchange yield was 50 to 75%.

In turn, KYFPYLVVI returned a peptide exchange yield of 50 to 75%. With KYLEDMKTYF the figure was 50 to 75%; with SYNGHLTIWF, 50 to 75%.

As for FYINGQYQF, the peptide exchange yield is 50 to 75%. With VYPFENFEF the figure was 50 to 75%. The result for PYLVVIHTL reads 50 to 75%; that for VYEKNGYIYF, 50 to 75%; that for VYVQILQKL, 50 to 75%.

The molecule HYVPATKVF gave a peptide exchange yield of 50 to 75%. Regarding NYIPVKNGKQF, the peptide exchange yield is 50 to 75%. The molecule NYEDHFPLL came in with a peptide exchange yield of 50 to 75%.

On to RYGFYYVEF, for which the peptide exchange yield was 50 to 75%. VFPRLHNVLF gave a peptide exchange yield of 50 to 75%.
